Four molecules from US12098206B2, “PDGF receptor antibody and use thereof” (Seoul National University R&DB Foundation, priority 2018, dated 2024) can be followed below.

Entries after “also recorded” stand apart in the source; their conditions may differ.

Assay [1] deals with human pericyte cells. Briefly: Anti-proliferative (cytotoxicity) test in human pericyte cells, cellular ATP. Format: cell-based. The note with it: with or without hPDGF-BB; FIGS. 14a and 14b. The method, then:
Human pericyte cells were added to 50 μL of DMEM supplemented with 10% FBS and 1% penicillin/streptomycin, placed in a 96-well plate (CLS3595, Corning) and incubated overnight in 5% CO2 at 37° C. incubator. In each well containing 50 μL of cells, 50 μL of 50 anti-hPDGFR-β x cotinine scFv-Cκ-scFv fusion protein (25.6 pM-2 μM) complexed with cot-duo was added and incubated for 72 hours in 5% CO2 and 37° C. incubator.
To evaluate the effect of hPDGF-BB on the toxicity of the complex of the bispecific antibody of scFv-Cκ-scFv and cot-duo, hPDGF-BB (2 nM) was added together with 50 μL of the bispecific antibody scFv-Cκ-scFv and cot-duo complex. The mixed complexes were added to 50 μL of cell-containing solution. The bispecific antibody anti-mCD154 x cotinine scFv-Cκ-scFv was used as a control. Other experimental methods were carried out in the same manner as in the protocol of the anti-mPDGFR-β x cotinine scFv-Cκ-scFv fusion protein in Example 7.
In order to evaluate the toxicity of the anti-hPDGFR-β x cotinine scFv-Cκ-scFv fusion protein and cot-duo complexes, the complex was treated in human pericyte cells with or without hPDGF-BB, and the cells were […] to measure the relative viability. The toxicity of the bispecific antibody of anti-hPDGFR-β x cotinine scFv-Cκ-scFv fusion protein and cot-duo complex was shown by IC50 (Table 8).

Assay [2] deals with T1, mPDGFR-β (Mus musculus, UniProt P05622).
T1 construct: mPDGFR-β
T1 sequence (P05622 32-530): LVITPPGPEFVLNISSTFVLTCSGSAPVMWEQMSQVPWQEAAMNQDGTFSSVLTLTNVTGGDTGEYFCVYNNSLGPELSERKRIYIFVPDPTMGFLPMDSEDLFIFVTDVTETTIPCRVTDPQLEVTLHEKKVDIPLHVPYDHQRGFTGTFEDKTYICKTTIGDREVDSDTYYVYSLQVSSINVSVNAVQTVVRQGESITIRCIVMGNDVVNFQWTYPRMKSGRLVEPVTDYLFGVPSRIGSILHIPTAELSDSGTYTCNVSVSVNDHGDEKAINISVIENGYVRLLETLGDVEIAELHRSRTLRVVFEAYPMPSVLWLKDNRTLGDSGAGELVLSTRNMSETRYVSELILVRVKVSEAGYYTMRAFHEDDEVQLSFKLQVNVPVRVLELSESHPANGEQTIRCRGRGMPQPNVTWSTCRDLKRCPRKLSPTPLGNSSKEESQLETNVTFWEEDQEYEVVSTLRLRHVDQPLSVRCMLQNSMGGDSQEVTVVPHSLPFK
Briefly: Cross-species enzyme immunoassay, mPDGFR-β. Format: binding. The conditions noted are these: 100 nM; FIG. 17. As to the method:
100 ng of hPDGFR-β, mPDGFR-β, rhesus PDGFR-β (90215-C02H, Sino Biological Inc. Beijing, China), cynomolgus monkey PDGFR-β, Sus scrofa PDGFR-β-Fc chimera or TNF-α receptor extracellular domain-human Fc fusion protein was coated with 4° C. temperature O/N. After blocking the wells, sequential culture of the anti-hPDGFR-β scFv-Cκ-scFv fusion protein and the HRP conjugated anti-human Cκ antibody was followed in the same manner as in Example 3.
FIG. 17 is a graph showing an experiment of the cross-species reaction of the bispecific antibody against the anti-hPDGFR-β antibody according to the present invention. On the microtiter plates coated with hPDGFR-β, mPDGFR-β, Rhesus PDGFR-β, Cynomolgus monkey PDGFR-β, Sus scrofa PDGFR-β and control Fc coated, the bispecific antibody containing anti-hPDGFR-β antibody according to the present invention (100 nM) was reacted and the amount of bound bispecific antibody was measured using HRP conjugated anti-human Cκ antibody and TMB.

Assay [3] has as its system A-431 cells. Put plainly: Cytotoxicity in A-431 cells not expressing hPDGFR-β. The conditions noted are these: complex with cot-duo (DAR4); FIG. 16. Format: cell-based. As to the method: FIG. 16 is a graph showing that cytotoxicity assays of bispecific antibody related with anti-hPDGFR-β antibody complexed with cot-duo complexes on the cells not expressing hPDGFR-β. A-431 cells were treated with anti-hPDGFR-β x cotinine fusion protein and cot-duo (DAR4). The cellular ATP levels were measured to determine relative cell viability. Bispecific anti-mCD154 x cotinine scFv-Cκ-scFv fusion protein was used as a negative control. DMSO was used as a vehicle control of cot-duo. Results are shown as the mean±SD acquired from three repetitive experiments.
All of the anti-hPDGFR-β x cotinine scFv-Cκ-scFv fusion proteins had not higher toxicity than the control antibody anti-mCD154 x cotinine scFv-Cκ-scFv fusion protein (FIG. 16). Therefore, as a result of anti-proliferative analysis result, the bispecific antibody/cot-duo complex had higher cytotoxicity in the human pericyte cell lines expressing hPDGFR-β, compared to the control anti-mCD154 x cotinine scFv-Cκ-scFv, but there was no difference in cytotoxicity in A-431 not expressing hPDGFR-β, compared to the control anti-mCD154 x cotinine scFv-Cκ-scFv.

Assay [4] addresses T2, NIH3T3 cells expressing mPDGFR-β (Mus musculus, UniProt P05622).
T2 construct: host or cells: NIH3T3
Briefly: Flow cytometry competition against PRb-CN01-rabbit Fc on NIH3T3 cells. Format: binding. The note with it: PRb-CN01-rabbit Fc 50 nM, competitor 1 μM, FIG. 19b. As to the method: According to the same manner as in Example 5, PRb-CN01-rabbit Fc (50 nM) and PRb-CN01, control antibody, PRb-CN32 bispecific antibody scFv-Cκ-scFv (1 μM) were cultured on NIH3T3 cells for 1 hour. After washing, it was reacted with FITC-anti rabbit Fc antibody (172-1506, KPL, Gaithersburg, Maryland, USA) at 4° C. for 1 hour. After washing, it was classified and analyzed with a FACS Canto II instrument (BD Biosciences, San Jose, CA, USA). 10,000 cells were identified for each measurement. The results were analyzed by FlowJo (Tree Star, Ashland, OR, USA) (FIG. 19b).
A general note: A flow cytometer gives signals particle by particle.

T2 sequence (P05622 32-1098): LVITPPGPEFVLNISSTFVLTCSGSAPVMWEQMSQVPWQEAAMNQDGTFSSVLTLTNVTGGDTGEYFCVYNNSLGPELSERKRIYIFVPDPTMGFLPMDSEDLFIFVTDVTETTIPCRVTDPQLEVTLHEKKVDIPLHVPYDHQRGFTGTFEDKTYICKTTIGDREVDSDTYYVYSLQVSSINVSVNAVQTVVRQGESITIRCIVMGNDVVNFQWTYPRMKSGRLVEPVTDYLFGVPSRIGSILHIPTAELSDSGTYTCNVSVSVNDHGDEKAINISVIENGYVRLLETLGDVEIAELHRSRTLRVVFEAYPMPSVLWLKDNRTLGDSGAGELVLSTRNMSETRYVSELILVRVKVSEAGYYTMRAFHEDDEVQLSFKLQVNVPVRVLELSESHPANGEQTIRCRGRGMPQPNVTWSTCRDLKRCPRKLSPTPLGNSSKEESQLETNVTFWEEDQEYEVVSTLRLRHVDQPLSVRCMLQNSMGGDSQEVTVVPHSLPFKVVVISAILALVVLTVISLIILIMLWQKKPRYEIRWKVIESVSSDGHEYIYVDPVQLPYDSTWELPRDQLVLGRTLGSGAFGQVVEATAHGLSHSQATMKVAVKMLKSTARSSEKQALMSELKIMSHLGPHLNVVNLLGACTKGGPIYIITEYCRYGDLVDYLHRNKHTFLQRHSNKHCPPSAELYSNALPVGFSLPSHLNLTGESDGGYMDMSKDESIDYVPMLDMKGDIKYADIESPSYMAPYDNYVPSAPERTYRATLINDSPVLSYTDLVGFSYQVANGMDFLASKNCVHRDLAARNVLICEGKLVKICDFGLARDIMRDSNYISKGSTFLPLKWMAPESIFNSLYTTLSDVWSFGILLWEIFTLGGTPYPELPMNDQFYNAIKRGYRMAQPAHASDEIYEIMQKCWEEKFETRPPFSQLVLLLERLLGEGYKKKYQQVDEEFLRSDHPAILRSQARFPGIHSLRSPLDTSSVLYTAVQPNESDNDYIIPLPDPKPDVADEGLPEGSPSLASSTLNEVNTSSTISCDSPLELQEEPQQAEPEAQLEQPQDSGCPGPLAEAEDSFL

B1: PRb-CN32: anti-hPDGFR-β scFv clone (VH SEQ ID NO 47, VL SEQ ID NO 48), tested as scFv-Cκ-anti-cotinine scFv bispecific antibody (antibody, V domains shown)
VH: AVTLDESGGGLQTPRGTLSLVCKASGFTFSSFNMFWVRQAPGKGLEFVAGISTTGRYTGYGSAVQGRGTISRDNGQSTVRLQLNNLRAEDTGTYYCAKSAGSTYSYWDSDAGLIDAWGHGTEVIVSSTS
VL: LTQPSSVSANLGETVKITCSGGSNAGSYYYGWYQQKSPGSAPVTVIYSNNQRPSDIPSRFSGSTSGSTSTLTITGVQVDDEAVYFCGSGDSSSIAAFGAGTTLTVL
modifications: VH of PRb-CN32; VL of PRb-CN32
As for B1, the “toxicity of complex with cot-duo in human pericyte cells, comparison” value (“toxicity of complex with cot-duo” below) in assay [1] is reported as “higher toxicity than control anti-mCD154 x cotinine scFv-Cκ-scFv; also recorded: highest cytotoxicity”. In addition, the “cross-species binding, mPDGFR-β” value in assay [2] is “confirmed to bind”. Besides, in assay [3], the “toxicity in A-431 cells compared to control anti-mCD154 x cotinine scFv-Cκ-scFv” value is “equivalent cytotoxicity”. For the same molecule, in assay [4], the “inhibition of binding of PRb-CN01-rabbit Fc to mPDGFR-β on the cell surface” value was “inhibited”.

B2: PRb-CN26: anti-hPDGFR-β scFv clone (VH SEQ ID NO 55, VL SEQ ID NO 56), tested as scFv-Cκ-anti-cotinine scFv bispecific antibody (antibody, V domains shown)
VH: AVTLDESGGGLQTPGGGLSLVCKASGFTFSDRGIHWVRQAPGKGLEWVAGIGNTGSYTAYAPAVKGRATISRDNGQSTVRLQLNNLRAEDTATYYCAKRGFMDAGGIDAWGHGTEVIVSSTS
VL: LTQPSSVSANPGETVKITCSGGGSYAGSYYYGWYQQKSPGSAPVTVIYDNTNRPSNIPSRFSGSLSGSTDTLTITGVQAEDEAVYFCGGYDGISDTGIFGAGTTLTVL
modifications: VH of PRb-CN26; VL of PRb-CN26
As for B2, the “toxicity of complex with cot-duo” value in assay [1] is “higher toxicity than control anti-mCD154 x cotinine scFv-Cκ-scFv; also recorded: highest cytotoxicity”. Also, the “cross-species binding, mPDGFR-β” value in assay [2] is recorded as “confirmed to bind”. Also, the “toxicity in A-431 cells compared to control anti-mCD154 x cotinine scFv-Cκ-scFv” value in assay [3] is on record as “equivalent cytotoxicity”.

B3: PRb-CN01: anti-mPDGFR-β chicken scFv clone (VH SEQ ID NO 7, VL SEQ ID NO 8), tested as scFv-Cκ-anti-cotinine scFv bispecific antibody (antibody, V domains shown)
VH: AVTLDESGGGLQTPGGALSLVCKASGFTFSDRAMHWVRQAPGKGLEWVGLITNTGGSTNYGAAVKGRATISRDNGQSTVRLQLNNLRAEDTGTYYCTRGVGSWAHGGRIDAWGHGTEVIVSS
VL: LTQPSSVSANPGETVKITCSGGSGSYGWFQQKSPGSAPVTVIYSNNQRPSDIPSRFSGSKSGSTNTLTITGVQAEDEAIYYCGTRDSSYVGIFGAGTTLTVL
modifications: VH of PRb-CN01; VL of PRb-CN01
In the case of B3, in assay [4], the “inhibition of binding of PRb-CN01-rabbit Fc to mPDGFR-β on the cell surface” value is “inhibited”.

B4: PRb-CN16: anti-hPDGFR-β scFv clone (VH SEQ ID NO 39, VL SEQ ID NO 40), tested as scFv-Cκ-anti-cotinine scFv bispecific antibody (antibody, V domains shown)
VH: AVTLDESGGGLQTPGTALSLVCKASGFTFSSFNMAWVRQAPGKGLEFVGEISNTAGSTFYAPAVKGRATISRDNGQSTVRLQLNNLRAEDTAIYYCAKAAGTCYSHSCTGYIDAWGHGTEVIVSSTS
VL: LTQPSSVSANPGETVKITCSGSSSSYGWYQQKSPGSAPVTLIYENNQRPSNIPSRFSGSKSGSTGTLTITGVQAEDEAVYYCGNADRSNSAGTFGAGTTLTVL
modifications: VH of PRb-CN16; VL of PRb-CN16
As for B4, the “toxicity of complex with cot-duo” value in assay [1] is “higher toxicity than control anti-mCD154 x cotinine scFv-Cκ-scFv”. Besides, the “cross-species binding, mPDGFR-β” value in assay [2] is “confirmed to bind”. Further, in assay [3], the “toxicity in A-431 cells compared to control anti-mCD154 x cotinine scFv-Cκ-scFv” value is reported as “equivalent cytotoxicity”.
